This is an account of results in PMC9910501.

The test has as its target OsASI1-BAH (residues 19 to 183) (rice). Nature of the test: ITC. A general note: ITC needs no label: the signal is the heat of the interaction.

Turning to “OsSUVH6 N-terminal peptide (OsSUVH6N, residues 287 to 304)”, the Kd – broadly, the equilibrium constant for the complex coming apart – worked out at 184 nM.
